By Km is commonly meant the substrate concentration at which the rate is half of its maximum. Broadly, the kcat is the number of substrate molecules converted per active site and unit of time at saturation. Broadly, the kcat/Km is the turnover number divided by the Michaelis constant.

Common to all, as to assay: purified protein
Series [1] relates to Nc1ccccc1C(=O)O. The format is biochemical, Juglans regia. The following applies: 1 mM PR-PPi, 45 mM imidazole HCl pH 7.4, 30 °C, anthranilate 0-0.75 mM.
The subject of series [2] is T1, Nc1c(O)cccc1C(=O)O.
T1 construct: codon-optimized gene in pET28a, His-tagged, E. coli BL21 (DE3), Ni-NTA
The series is classed as biochemical, Juglans regia. The following applies: 1 mM PR-PPi, 45 mM imidazole HCl pH 7.4, 30 °C, 3-HAA 0-0.5 mM.

For series [3], the system named is T2, Nc1ccccc1C(=O)O.
T2 construct: codon-optimized gene in pET28a, His-tagged, E. coli BL21 (DE3), Ni-NTA
The series is classed as biochemical, Selaginella moellendorffii. The following applies: 1 mM PR-PPi, 45 mM imidazole HCl pH 7.4, 30 °C, anthranilate 0-0.75 mM.

In series [4] the test system is T1, Nc1c(O)cccc1C(=O)O. The format is biochemical, Selaginella moellendorffii. The following applies: 1 mM PR-PPi, 45 mM imidazole HCl pH 7.4, 30 °C, 3-HAA 0-0.5 mM.
Series [5] has as its system Nc1ccccc1C(=O)O. The format is biochemical, Physcomitrium patens. The conditions noted are these: 1 mM PR-PPi, 45 mM imidazole HCl pH 7.4, 30 °C, anthranilate 0-0.75 mM.
In series [6] the test system is T2, Nc1ccccc1C(=O)O. The series is classed as biochemical, Arabidopsis thaliana. The conditions noted are these: 1 mM PR-PPi, 45 mM imidazole HCl pH 7.4, 30 °C, anthranilate 0-0.75 mM.
Series [7] deals with T1, Nc1c(O)cccc1C(=O)O. The format is biochemical, Arabidopsis thaliana. The following applies: 1 mM PR-PPi, 45 mM imidazole HCl pH 7.4, 30 °C, 3-HAA 0-0.5 mM.

Take JrPAT1 (Juglans regia): in the series with Nc1ccccc1C(=O)O [1], the Km came to 38.7 ± 3.5 µM, the turnover number (kcat) is 0.055 ± 0.00167 s⁻¹ and the kcat/Km stood at 1420 M⁻¹ s⁻¹. Also, in the series on Nc1c(O)cccc1C(=O)O [2], the Km is 28.23 ± 4.2 µM, the kcat is 0.0483 ± 0.00167 s⁻¹ and the kcat/Km stood at 1690 M⁻¹ s⁻¹.

For the substance SmPAT1 (Selaginella moellendorffii), in the series with Nc1ccccc1C(=O)O [3], the Km was 189 ± 35 µM, the kcat was determined as 0.085 ± 0.005 s⁻¹ and the kcat/Km stood at 450 M⁻¹ s⁻¹. Besides, in the series with Nc1c(O)cccc1C(=O)O [4], the Km stood at 22.66 ± 1.5 µM, the kcat came to 0.0533 ± 0.000833 s⁻¹ and the kcat/Km amounted to 2360 M⁻¹ s⁻¹.

As to PpPAT1 (Physcomitrium patens), in the series on Nc1ccccc1C(=O)O [5], the Km came out at 31.8 ± 4.4 µM, the turnover number (kcat) was determined as 0.0567 ± 0.00167 s⁻¹ and the kcat/Km amounted to 1790 M⁻¹ s⁻¹.

For the substance AtPAT1 (Arabidopsis thaliana), in the series on Nc1ccccc1C(=O)O [6], the Km was 20.6 ± 2.0 µM, the kcat was found to be 0.132 ± 0.00167 s⁻¹ and the kcat/Km was determined as 6360 M⁻¹ s⁻¹. For the same substance, in the series on Nc1c(O)cccc1C(=O)O [7], the Km was 19.63 ± 2.3 µM, the kcat was found to be 0.0483 ± 0.00117 s⁻¹ and the kcat/Km was 2470 M⁻¹ s⁻¹.

For the origin of these results see article PMC10520873, “Biochemical investigation of the tryptophan biosynthetic enzyme anthranilate phosphoribosyltransferase in plants” (The Journal of Biological Chemistry, 2023).
